The record followed here is patent publication US20180325836A1, “ULTRASONIC TRANSDUCERS SUITABLE FOR ULTRASONIC DRUG DELIVERY VIA A SYSTEM, WHICH IS PORTABLE AND WEARABLE BY THE PATIENT” (BKR IP Holdco LLC, priority 2015, published 2018).

For one data set, the system named is rat skin. The following applies: rats, after ultrasonic transdermal insulin delivery with transducer array. The source says: The belly of the rats were shaved to produce a skin area as close in configuration as would be present in the human situation. The transducer arrays were placed directly onto the rat skin surface and adhered to the skin by means of an adhesive.
A section of the skin where the transducer was placed is marked on the skin.

The next data set relates to rats. Nature of the data set: Ultrasonically enhanced transdermal insulin delivery in live rats, blood glucose levels. Format: in vivo, rat. The source says: A four-element transducer was fabricated using four standard cymbal element transducers in one array system (Array #1) and four stacked cymbal element transducers in another system (Array #2). Array #1, the standard array, was set to operate at 20 k Hz frequency and at 125 mW/sq. cm intensity level. Array #2, the stacked array, was set to operate at 20 k Hz frequency and at 225 mW/sq. cm intensity level.
The transducer's arrays were fitted with a reservoir at the bottom end, into which Humulin Regular Insulin (supplied by Eli Lilly Company) was inserted. A total of […] of insulin was added, providing 100 units of insulin for the each test.
Two groups of test rates were assembled. The first group (Group-1) would receive the ultrasonic transmission while the second group would receive no ultrasound. In the second group (Group-2) the transducers arrays were loaded with insulin and the insulin was allowed to pool onto the surface of the rat skin, but there was no active ultrasonic transmission.
Next a frequency generator was employed to propagate the pulsed ultrasonic transmission, which used 100 millisecond pulses, with a pulse rate of one pulse per second, a duty cycle of 10%, for one hour.
Both Group-1 and Group-2 animals were tested for 120 minutes. Blood samples were taken from the animals according to standard investigative procedure every 30 minutes for the first hour and every hour after and analyzed for glucose levels and the presence of insulin. The Group-1 animals were exposed to ultrasound for 60 minutes, after which the ultrasound was terminated for the balance of the test period. Glucose levels in both groups were observed over the 120 minute period.

Data set [1] is described as follows: Drug survivability after ultrasonic exposure (HPLC analysis of insulin). The class given is physicochemical. An excerpt: Since the transducers of this invention are designed primarily for application in a drug delivery system the Applicant deemed it necessary to test the effect of the ultrasonic signal upon an active pharmaceutical substance. High intensity and high frequency ultrasound is theorized to be capable of inducing a cavitation effect within a drug, leading to an increase in temperature and a degradation of the drug molecule. For the following experiment Insulin (Humulin Regular-supplied by the Eli Lilly Company) was subjected to ultrasound emitted from a stacked array of the transducers of this invention, set to operate at 20 k Hz frequency and at 125 mW/sq. cm intensity level, for one, eight and eleven continuous hours of exposure. The insulin was placed in a plastic pouch within a hydrophone tank containing water and stirred during ultrasonic exposure. A control sample, which was untreated, but allowed to sit in the pouch and tank for one, eight and eleven hours, was also made. Samples were sent to Celsis Laboratories for independent analysis.

For the substance Insulin [Humulin Regular], the “skin damage at test area” value in the data set on rat skin is recorded as “no skin damage”. Further, the glucose level result is on record as “significant reduction” with rats (Group-1 rats, insulin on skin with active ultrasound (20 k Hz), minute 30 and minute 60); “no lowering” with rats (Group-2 rats, insulin on skin, no ultrasound, minute 30 and minute 60); “no decrease” with rats (Group-2 rats, no ultrasound, minute 60 to 120). Besides, the “glucose level after termination of the ultrasound” value in the data set with rats (Group-1 rats, minute 60 to 120, ultrasound terminated at minute 60) is “rise”. In addition, the “permeation through the skin” value in the data set with rats (insulin placed on the skin or delivered via transdermal patch, without ultrasound) is recorded as “will not permeate”. The “degradation of insulin or excipient solution (HPLC scan)” value is given as “no degradation” in data set [1] (control sample, no ultrasound, left in pouch and tank); “no degradation” in data set [1] (ultrasonically treated sample, eight hours of continuous exposure, 20 k Hz, 125 mW/sq. cm). The “change in the insulin versus untreated insulin (independent analysis)” value in data set [1] (ultrasound from stacked array, 20 k Hz, 125 mW/sq. cm, one, eight and eleven continuous hours) is “no change”.
